According to patent US20170002055A1, “Novel peptides and combination of peptides for use in immunotherapy against ovarian cancer and other cancers” (immatics biotechnologies GmbH, priority 2015, published 2017):

Target: HLA-A*02:01 (Homo sapiens, UniProt P04439, D140Y/D185E/D98H/E176V/E277Q/G131W/G231S/I119V/I121R/I166T/I218V/L300P/L318F/N151K/N90K/P208A/P217A/Q86G/Q94H/R138H/R169H/T345S)
Experiment: MHC binding assay (UV-ligand exchange, β2m ELISA, peptide exchange yield)
Details: MHC class I binding score; binding to HLA-A*02:01 ranged by peptide exchange yield (UV-ligand exchange, β2m ELISA)
Excerpt: Candidate peptides for T cell based therapies according to the present invention were further tested for their MHC binding capacity (affinity). The individual peptide-MHC complexes were produced by UV-ligand exchange, where a UV-sensitive peptide is cleaved upon UV-irradiation, and exchanged with the peptide of interest as analyzed. Only peptide candidates that can effectively bind and stabilize the peptide-receptive MHC molecules prevent dissociation of the MHC complexes. To determine the yield of the exchange reaction, an ELISA was performed based on the detection of the light chain (β2m) of stabilized MHC complexes. The assay was performed as generally described in Rodenko et al. (Rodenko et al., 2006).
96 well MAXISorp plates (NUNC) were coated over night with 2 ug/ml streptavidin in PBS at room temperature, washed 4× and blocked for 1h at 37° C. in 2% BSA containing blocking buffer. […] Peptide-MHC monomers of the UV-exchange reaction were diluted 100 fold in blocking buffer. Samples were incubated for 1h at 37° C., washed four times, incubated with 2 ug/ml HRP conjugated anti-β2m for 1h at 37° C., washed again and detected with TMB solution that is stopped with […]. Absorption was measured at 450 nm. Candidate peptides that show a high exchange yield (preferably higher than 50%, most preferred higher than 75%) are generally preferred for a generation and production of antibodies or fragments thereof, and/or T cell receptors or fragments thereof, as they show sufficient avidity to the MHC molecules and prevent dissociation of the MHC complexes.

Peptide exchange, “++++” (≧75% = ++++):
4 (GIMEHITKI; listed as Homo sapiens) [compound 4], 10 (FLATFPLAAV; listed as Homo sapiens) [compound 10], 51 (LLPDLEFYV; listed as Homo sapiens) [compound 51], 52 (FLLAHGLGFLL; listed as Homo sapiens) [compound 52], 53 (KMIETDILQKV; listed as Homo sapiens) [compound 53], 55 (SLLDLETLSL; listed as Homo sapiens) [compound 55], 62 (VLLDVSAGQLLM; listed as Homo sapiens) [compound 62], 68 (SLMELPRGLFL; listed as Homo sapiens) [compound 68], 77 (ILVEADGAWVV; listed as Homo sapiens) [compound 77], 89 (YILPTETIYV; listed as Homo sapiens) [compound 89], 91 (IMQDFPAEIFL; listed as Homo sapiens) [compound 91]

Peptide exchange, “+++” (≧50 = +++):
1 (SLMEPPAVLLL; listed as Homo sapiens) [compound 1], 6 (VLVSDGVHSV; listed as Homo sapiens) [compound 6], 12 (SLWPDPMEV; listed as Homo sapiens) [compound 12], 13 (YLMDESLNL; listed as Homo sapiens) [compound 13], 14 (AAYGGLNEKSFV; listed as Homo sapiens) [compound 14], 16 (VLFQGQASL; listed as Homo sapiens) [compound 16], 20 (RMIEYFIDV; listed as Homo sapiens) [compound 20], 22 (IMEENPGIFAV; listed as Homo sapiens) [compound 22], 23 (VLLDDIFAQL; listed as Homo sapiens) [compound 23], 25 (FLPDEPYIKV; listed as Homo sapiens) [compound 25], 26 (ALLELAEEL; listed as Homo sapiens) [compound 26], 27 (ILADIVISA; listed as Homo sapiens) [compound 27], 28 (QLLDETSAITL; listed as Homo sapiens) [compound 28], 29 (KMLGIPISNILMV; listed as Homo sapiens) [compound 29], 30 (LILDWVPYI; listed as Homo sapiens) [compound 30], 34 (ILVEADSLWVV; listed as Homo sapiens) [compound 34], 35 (KINDTIYEV; listed as Homo sapiens) [compound 35], 39 (SVAPNLPAV; listed as Homo sapiens) [compound 39], 41 (SLMPHIPGL; listed as Homo sapiens) [compound 41], 42 (VLLQKIVSA; listed as Homo sapiens) [compound 42], 45 (SLWQDIPDV; listed as Homo sapiens) [compound 45], 46 (ILTEENIHL; listed as Homo sapiens) [compound 46], 50 (SLSELEALM; listed as Homo sapiens) [compound 50], 54 (SLLEQGKEPWMV; listed as Homo sapiens) [compound 54], 57 (TLAELQPPVQL; listed as Homo sapiens) [compound 57], 59 (IMEDIILTL; listed as Homo sapiens) [compound 59], 66 (FLDENIGGVAV; listed as Homo sapiens) [compound 66], 67 (TLLAEALVTV; listed as Homo sapiens) [compound 67], 69 (FQLDPSSGVLVTV; listed as Homo sapiens) [compound 69], 70 (GLLDYPVGV; listed as Homo sapiens) [compound 70], 71 (GILARIASV; listed as Homo sapiens) [compound 71], 72 (SLLELDGINL; listed as Homo sapiens) [compound 72], 73 (NIFDLQIYV; listed as Homo sapiens) [compound 73], 74 (ALLDPEVLSIFV; listed as Homo sapiens) [compound 74], 75 (GLLEVMVNL; listed as Homo sapiens) [compound 75], 76 (ILIDSIYKV; listed as Homo sapiens) [compound 76], 78 (SLFSSLEPQIQPV; listed as Homo sapiens) [compound 78], 82 (FLSSVTYNL; listed as Homo sapiens) [compound 82], 83 (ILAPTVMMI; listed as Homo sapiens) [compound 83], 85 (KMSELRVTL; listed as Homo sapiens) [compound 85], 86 (NLIGKIENV; listed as Homo sapiens) [compound 86], 88 (FLLVGDLMAV; listed as Homo sapiens) [compound 88], 90 (TLLQIIETV; listed as Homo sapiens) [compound 90]

Peptide exchange, “++” (≧20% = ++):
9 (GAAKDLPGV; listed as Homo sapiens) [compound 9], 15 (VLLTFKIFL; listed as Homo sapiens) [compound 15], 18 (YLVAKLVEV; listed as Homo sapiens) [compound 18], 21 (VLDELDMEL; listed as Homo sapiens) [compound 21], 24 (SLSDGLEEV; listed as Homo sapiens) [compound 24], 31 (YLAPELFVNV; listed as Homo sapiens) [compound 31], 32 (KLDDLTQDLTV; listed as Homo sapiens) [compound 32], 33 (VLLSLLEKV; listed as Homo sapiens) [compound 33], 43 (VLSSLEINI; listed as Homo sapiens) [compound 43], 44 (ILDPISSGFLL; listed as Homo sapiens) [compound 44], 47 (ILLSVPLLVV; listed as Homo sapiens) [compound 47], 63 (YLLPSGGSVTL; listed as Homo sapiens) [compound 63], 64 (YAAPGGLIGV; listed as Homo sapiens) [compound 64], 80 (FLYDNLVESL; listed as Homo sapiens) [compound 80], 81 (FLFSQLQYL; listed as Homo sapiens) [compound 81], 84 (VTFGEKLLGV; listed as Homo sapiens) [compound 84], 87 (ALPEAPAPLLPHIT; listed as Homo sapiens) [compound 87], 92 (YLIPFTGIVGL; listed as Homo sapiens) [compound 92], 93 (LLQAIKLYL; listed as Homo sapiens) [compound 93]
